The record followed here is publication PMC6144786, “DNA binding with a minimal scaffold: structure–function analysis of Lig E DNA ligases” (Nucleic Acids Research, 2018).

One series addresses T1, Ame-Lig (Alteromonas mediterranea, UniProt Z9I348I3L4).
T1 construct: predicted mature form, signal peptide omitted (cleavage between 21 and 22), codon-optimised synthetic gene in pDEST17; monomer in the asymmetric unit with nicked DNA
T1 sequence (Z9I348I3L4 2-297): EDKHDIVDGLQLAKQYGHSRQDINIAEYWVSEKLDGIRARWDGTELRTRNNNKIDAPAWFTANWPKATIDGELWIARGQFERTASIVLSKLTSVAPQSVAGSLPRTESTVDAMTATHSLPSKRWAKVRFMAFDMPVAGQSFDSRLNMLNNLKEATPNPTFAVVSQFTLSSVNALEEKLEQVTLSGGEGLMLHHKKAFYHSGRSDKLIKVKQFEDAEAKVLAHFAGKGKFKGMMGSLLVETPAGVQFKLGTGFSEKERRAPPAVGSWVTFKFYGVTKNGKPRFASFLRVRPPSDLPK
Briefly: molecular beacon ligation assay. Format: biochemical. The settings on record: 0.1 mM ATP, 300 nM nicked DNA substrate, 10 mM MgCl2, pH 8.0, 30 °C.

In the next series the test system is Psy-Lig K176A. The series can be described thus: MST. The settings on record: 5' phosphate on S24 at nick, MST: 50 mM Tris, 100 mM NaCl, 1 mM DTT, 5 mM EDTA, 1 mM ATP, 0.5% Tween, 40 nM DNA, incubated 4 C, read 25 C, EMSA: 50 mM Tris pH 8.0, 50 mM NaCl, 0. A general note: A gel shift assay detects complexes by their altered migration in electrophoresis.
In the next series the test system is Psy-Lig K25A. Briefly: MST. The settings on record: 5' phosphate on S24 at nick, MST: 50 mM Tris, 100 mM NaCl, 1 mM DTT, 5 mM EDTA, 1 mM ATP, 0.5% Tween, 40 nM DNA, incubated 4 C, read 25 C, EMSA: 50 mM Tris pH 8.0, 50 mM NaCl, 0.
Another series has as its system Psy-Lig R69A. The series can be described thus: MST. The settings on record: 5' phosphate on S24 at nick, MST: 50 mM Tris, 100 mM NaCl, 1 mM DTT, 5 mM EDTA, 1 mM ATP, 0.5% Tween, 40 nM DNA, incubated 4 C, read 25 C, EMSA: 50 mM Tris pH 8.0, 50 mM NaCl, 0.
Another series deals with Psy-Lig S215A. The series can be described thus: MST. The settings on record: 5' phosphate on S24 at nick, MST: 50 mM Tris, 100 mM NaCl, 1 mM DTT, 5 mM EDTA, 1 mM ATP, 0.5% Tween, 40 nM DNA, incubated 4 C, read 25 C, EMSA: 50 mM Tris pH 8.0, 50 mM NaCl, 0.
The next series has as its system Psy-Lig N144A. Briefly: MST. The settings on record: 5' phosphate on S24 at nick, MST: 50 mM Tris, 100 mM NaCl, 1 mM DTT, 5 mM EDTA, 1 mM ATP, 0.5% Tween, 40 nM DNA, incubated 4 C, read 25 C, EMSA: 50 mM Tris pH 8.0, 50 mM NaCl, 0.
For series [1], the system named is Psy-Lig WT (Lig E DNA ligase). The series can be described thus: MST. The settings on record: 5' phosphate on S24 at nick, MST: 50 mM Tris, 100 mM NaCl, 1 mM DTT, 5 mM EDTA, 1 mM ATP, 0.5% Tween, 40 nM DNA, incubated 4 C, read 25 C, EMSA: 50 mM Tris pH 8.0, 50 mM NaCl, 0.
The subject of another series is Psy-Lig K212A. Briefly: MST. The settings on record: 5' phosphate on S24 at nick, MST: 50 mM Tris, 100 mM NaCl, 1 mM DTT, 5 mM EDTA, 1 mM ATP, 0.5% Tween, 40 nM DNA, incubated 4 C, read 25 C, EMSA: 50 mM Tris pH 8.0, 50 mM NaCl, 0.
The next series concerns Psy-Lig K193A. The series can be described thus: MST. The settings on record: 5' phosphate on S24 at nick, MST: 50 mM Tris, 100 mM NaCl, 1 mM DTT, 5 mM EDTA, 1 mM ATP, 0.5% Tween, 40 nM DNA, incubated 4 C, read 25 C, EMSA: 50 mM Tris pH 8.0, 50 mM NaCl, 0.
The next series deals with Psy-Lig R80A. Briefly: MST. The settings on record: 5' phosphate on S24 at nick, MST: 50 mM Tris, 100 mM NaCl, 1 mM DTT, 5 mM EDTA, 1 mM ATP, 0.5% Tween, 40 nM DNA, incubated 4 C, read 25 C, EMSA: 50 mM Tris pH 8.0, 50 mM NaCl, 0.

Turning to `Nc1ncnc2c1ncn2[C@@H]1O[C@H](COP(=O)(O)OP(=O)(O)OP(=O)(O)O)[C@@H](O)[C@H]1O` [ATP], at Ame-Lig, the “molecular beacon ligation assay” value is “Ligase activity of Ame-Lig and Psy-Lig mutants were measured by molecular beacon (MB) assay”.

Consider “AGGCCATGGCTGATATCGGA / TCCGAATTCGAGCTCCGTCG / CGACGGAGCTCGAATTCGGATCCGATATCAGCCATGGCCT [nicked 40-mer (MST)]”, for which the K half in the series with Psy-Lig K176A came out at 5.17 µM; with Psy-Lig K25A, 3.3 µM; in the series on Psy-Lig R69A, 3.08 µM; with Psy-Lig S215A, 1740 nM; in the series with Psy-Lig N144A it was 2450 nM; in series [1], 980 nM. Also, the K half with Psy-Lig K212A worked out at 7.1 µM; in the series on Psy-Lig K193A, 2550 nM; in the series with Psy-Lig R80A it was 3.62 µM.
